Assay results taken from PMC6914362 (Nature, 2019).
Where a chain is given by its changes, count along the chain named. In names and notes the source's numbering stands.

Legend:
SEC [1] = biological target: the molecule itself; test: SEC
SEC [2] = biological target: the molecule itself; test: SEC; remark: listed apart in the source
native gel or EMSA = biological target: the molecule itself; test: native gel or EMSA

B1: SHMT1 wild type (enzyme, human, UniProt P34896 1-483, looked up)
chain: MTMPVNGAHKDADLWSSHDKMLAQPLKDSDVEVYNIIKKESNRQRVGLELIASENFASRAVLEALGSCLNNKYSEGYPGQRYYGGTEFIDELETLCQKRALQAYKLDPQCWGVNVQPYSGSPANFAVYTALVEPHGRIMGLDLPDGGHLTHGFMTDKKKISATSIFFESMPYKVNPDTGYINYDQLEENARLFHPKLIIAGTSCYSRNLEYARLRKIADENGAYLMADMAHISGLVAAGVVPSPFEHCHVVTTTTHKTLRGCRAGMIFYRKGVKSVDPKTGKEILYNLESLINSAVFPGLQGGPHNHAIAGVAVALKQAMTLEFKVYQHQVVANCRALSEALTELGYKIVTGGSDNHLILVDLRSKGTDGGRAEKVLEACSIACNKNTCPGDRSALRPSGLRLGTPALTSRGLLEKDFQKVAHFIHRGIELTLQIQSDTGVRATLKEFKERLAGDKYQAAVQALREEVESFASLFPLPGLPDF
SEC [1]
  stoichiometry N: 4

B2: SHMT2ΔN (residues 18-504), dimeric (PLP-free) form (enzyme, human, UniProt P34897 18-504, looked up)
chain: QLVRMAIRAQHSNAAQTQTGEANRGWTGQESLSDSDPEMWELLQREKDRQCRGLELIASENFCSRAALEALGSCLNNKYSEGYPGKRYYGGAEVVDEIELLCQRRALEAFDLDPAQWGVNVQPYSGSPANLAVYTALLQPHDRIMGLDLPDGGHLTHGYMSDVKRISATSIFFESMPYKLNPKTGLIDYNQLALTARLFRPRLIIAGTSAYARLIDYARMREVCDEVKAHLLADMAHISGLVAAKVIPSPFKHADIVTTTTHKTLRGARSGLIFYRKGVKAVDPKTGREIPYTFEDRINFAVFPSLQGGPHNHAIAAVAVALKQACTPMFREYSLQVLKNARAMADALLERGYSLVSGGTDNHLVLVDLRPKGLDGARAERVLELVSITANKNTCPGDRSAITPGGLRLGAPALTSRQFREDDFRRVVDFIDEGVNIGLEVKSKTAKLQDFKSFLLKDSETSQRLANLRQRVEQFARAFPMPGFDEH
SEC [2]
  stoichiometry N: 2

B3: Flag-HA epitope-tagged SHMT2ΔN (MEFs) (enzyme, human, UniProt P34897 18-504, looked up)
chain: B2 chain
Native gel or EMSA
  stoichiometry N: 2

B4: SHMT2ΔN+A285T (enzyme, human, UniProt P34897 18-504, looked up)
chain: B2 chain with A268T
SEC [2]
  stoichiometry N: 2

B5: SHMT2ΔN (residues 18-504), PLP-bound tetramer (enzyme, human, UniProt P34897 18-504, looked up)
chain: B2 chain
modifications: pyridoxal-5'-phosphate (PLP) bound, internal aldimine linkage; PLP acceptor Lys280
SEC [2]
  stoichiometry N: 4
